Columns and labels:
HLA-A*02:01 = assay: IEDB peptide-MHC binding, purified MHC/competitive/fluorescence; filed as Kd, often an IC50 or EC50 that approximates it; ≥ and ≤ were set here for values at or beyond the usual limits of such assays
HLA-A*26:01 = assay: as above
HLA-B*27:03 = assay: as above
HLA-B*46:01 = assay: as above
HLA-B*51:01 [1] = assay: as above
HLA-B*15:17 = assay: as above; conditions: source organism: Zaire ebolavirus
HLA-A*69:01 = assay: as above
HLA-B*57:01 = assay: as above
HLA-B*15:01 = assay: as above
HLA-B*18:01 = assay: as above
HLA-B*39:01 = assay: as above
HLA-A*02:19 [2] = assay: IEDB peptide-MHC binding, purified MHC/direct/fluorescence; filed as Kd, often an IC50 or EC50 that approximates it; ≥ and ≤ were set here for values at or beyond the usual limits of such assays
HLA-A*02:12 [3] = assay: as above
HLA-A*03:01 [4] = assay: as above
HLA-A*02:16 = assay: as above
HLA-A*02:03 [5] = assay: as above
HLA-A*68:02 [6] = assay: as above
HLA-B*07:02 [7] = assay: as above; conditions: source organism: Sudan ebolavirus - Maleo (1979)
HLA-A*02:11 [8] = assay: as above
HLA-A*02:19 [9] = assay: IEDB peptide-MHC binding, purified MHC/competitive/fluorescence; filed as Kd, often an IC50 or EC50 that approximates it; ≥ and ≤ were set here for values at or beyond the usual limits of such assays
HLA-A*24:03 [10] = assay: as above
HLA-A*02:12 [11] = assay: as above
HLA-A*03:01 [12] = assay: as above
HLA-A*02:03 [13] = assay: as above
HLA-A*29:02 = assay: as above
HLA-A*02:11 [14] = assay: as above
HLA-B*27:05 = assay: as above; conditions: source organism: Influenza A virus (A/swine/Hong Kong/81/1978(H3N2))
HLA-C*06:02 = assay: IEDB peptide-MHC binding, purified MHC/direct/fluorescence; filed as Kd, often an IC50 or EC50 that approximates it; ≥ and ≤ were set here for values at or beyond the usual limits of such assays
HLA-A*11:01 = assay: IEDB peptide-MHC binding, purified MHC/competitive/fluorescence; filed as Kd, often an IC50 or EC50 that approximates it; ≥ and ≤ were set here for values at or beyond the usual limits of such assays; conditions: source organism: Influenza A virus (A/swine/Scotland/410440/94(H1N2))
HLA-A*02:03 [15] = assay: IEDB peptide-MHC binding, purified MHC/competitive/radioactivity; filed as Kd, often an IC50 or EC50 that approximates it; ≥ and ≤ were set here for values at or beyond the usual limits of such assays; conditions: source organism: Vaccinia virus WR
HLA-A*68:02 [16] = assay: as above; conditions: source organism: Vaccinia virus WR
HLA-A*02:02 = assay: as above; conditions: source organism: Vaccinia virus WR
HLA-A*02:06 = assay: as above; conditions: source organism: Vaccinia virus WR
HLA-C*03:03 = assay: IEDB peptide-MHC binding, purified MHC/direct/fluorescence; filed as Kd, often an IC50 or EC50 that approximates it; ≥ and ≤ were set here for values at or beyond the usual limits of such assays; conditions: source organism: Vaccinia virus WR
HLA-B*07:02 [17] = assay: IEDB peptide-MHC binding, purified MHC/competitive/fluorescence; filed as Kd, often an IC50 or EC50 that approximates it; ≥ and ≤ were set here for values at or beyond the usual limits of such assays
HLA-B*51:01 [18] = assay: IEDB peptide-MHC binding, purified MHC/direct/fluorescence; filed as Kd, often an IC50 or EC50 that approximates it; ≥ and ≤ were set here for values at or beyond the usual limits of such assays; conditions: source organism: human gammaherpesvirus 4
HLA-A*24:03 [19] = assay: as above; conditions: source organism: Influenza A virus (A/ferret/Maryland/P10-UMD/2008(H9N2))
HLA-A*23:01 = assay: as above; conditions: source organism: Influenza A virus (A/ferret/Maryland/P10-UMD/2008(H9N2))
[20] = source organism: Zaire ebolavirus
[21] = source organism: Yersinia pestis Antiqua
[22] = source organism: Vibrio cholerae 2740-80
[23] = source organism: Escherichia coli str. K-12 substr. MG1655
[24] = source organism: Influenza A virus (A/Victoria/1968(H3N2))
[25] = source organism: Influenza A virus (A/ferret/Maryland/P10-UMD/2008(H9N2))

TPSGKRLQI
Kd (HLA-A*02:01; [20]): ≥ 20 µM
Kd (HLA-A*26:01; [20]): ≥ 20 µM
Kd (HLA-B*27:03; [20]): ≥ 20 µM
Kd (HLA-B*46:01; [20]): ≥ 20 µM
Kd (HLA-B*51:01 [1]; [20]): ≥ 20 µM
Kd (HLA-B*15:17): ≥ 20 µM
Kd (HLA-A*69:01; [20]): ≥ 20 µM
Kd (HLA-B*57:01; [20]): ≥ 20 µM
Kd (HLA-B*15:01; [20]): ≥ 20 µM
Kd (HLA-B*18:01; [20]): ≥ 20 µM
Kd (HLA-B*39:01; [20]): ≥ 20 µM
Kd (HLA-A*02:19 [2]; [20]): ≥ 20 µM
Kd (HLA-A*02:12 [3]; [20]): ≥ 20 µM
Kd (HLA-A*03:01 [4]; [20]): ≥ 20 µM
Kd (HLA-A*02:16; [20]): ≥ 20 µM
Kd (HLA-A*02:03 [5]; [20]): ≥ 20 µM
Kd (HLA-A*68:02 [6]; [20]): ≥ 20 µM
Kd (HLA-B*07:02 [7]): 35.6 nM
Kd (HLA-A*02:11 [8]; [20]): ≥ 20 µM

PLTNQRYRV
Kd (HLA-A*02:19 [9]; [21]): 797 nM
Kd (HLA-A*02:01; [21]): ≥ 20 µM
Kd (HLA-A*26:01; [21]): ≥ 20 µM
Kd (HLA-A*24:03 [10]; [21]): ≥ 20 µM
Kd (HLA-A*02:12 [11]; [21]): ≥ 20 µM
Kd (HLA-A*03:01 [12]; [21]): ≥ 20 µM
Kd (HLA-A*02:03 [13]; [21]): ≥ 20 µM
Kd (HLA-B*27:03; [21]): ≥ 20 µM
Kd (HLA-B*46:01; [21]): ≥ 20 µM
Kd (HLA-B*51:01 [1]; [21]): ≥ 20 µM
Kd (HLA-B*57:01; [21]): ≥ 20 µM
Kd (HLA-A*29:02; [21]): ≥ 20 µM
Kd (HLA-A*02:11 [14]; [21]): ≥ 20 µM
Kd (HLA-B*15:01; [21]): ≥ 20 µM
Kd (HLA-B*18:01; [21]): ≥ 20 µM
Kd (HLA-B*39:01; [21]): ≥ 20 µM

GRIQDLEKY
Kd (HLA-B*27:05): 112 nM

YEPEMQAQV
Kd (HLA-A*02:19 [9]; [22]): 845 nM
Kd (HLA-A*02:01; [22]): ≥ 20 µM
Kd (HLA-A*26:01; [22]): ≥ 20 µM
Kd (HLA-A*24:03 [10]; [22]): ≥ 20 µM
Kd (HLA-A*02:12 [11]; [22]): ≥ 20 µM
Kd (HLA-A*03:01 [12]; [22]): ≥ 20 µM
Kd (HLA-A*02:03 [13]; [22]): ≥ 20 µM
Kd (HLA-B*27:03; [22]): ≥ 20 µM
Kd (HLA-B*46:01; [22]): ≥ 20 µM
Kd (HLA-B*51:01 [1]; [22]): ≥ 20 µM
Kd (HLA-B*57:01; [22]): ≥ 20 µM
Kd (HLA-A*29:02; [22]): ≥ 20 µM
Kd (HLA-A*02:11 [14]; [22]): ≥ 20 µM
Kd (HLA-B*15:01; [22]): ≥ 20 µM
Kd (HLA-B*18:01; [22]): ≥ 20 µM
Kd (HLA-B*39:01; [22]): ≥ 20 µM

YRTATLRTL
Kd (HLA-C*06:02; source organism: human gammaherpesvirus 4): 9 nM

KVYKTYFEK
Kd (HLA-A*11:01): 4.7 nM

YIYGIPLSL
Kd (HLA-A*02:03 [15]): 13.1 µM
Kd (HLA-A*68:02 [16]): 1870 nM
Kd (HLA-A*02:02): 460 nM
Kd (HLA-A*02:06): 11.5 µM
Kd (HLA-C*03:03): ≤ 1 nM

APTADVAKI
Kd (HLA-B*51:01 [1]; [23]): ≥ 20 µM
Kd (HLA-B*07:02 [17]; [23]): 868 nM

RARLWPRSM
Kd (HLA-C*06:02; source organism: Mycobacterium tuberculosis variant bovis BCG str. Pasteur 1173P2): 701 nM

HPVGEADYFEY
Kd (HLA-B*07:02 [17]; source organism: Human herpesvirus 4 strain B95-8): ≥ 20000 nM
Kd (HLA-B*51:01 [18]): ≥ 20 µM

NMDKAVKLY
Kd (HLA-A*02:01; [24]): ≥ 20 µM
Kd (HLA-A*26:01; [24]): ≥ 20 µM
Kd (HLA-B*27:03; [24]): ≥ 20 µM
Kd (HLA-B*46:01; [24]): ≥ 20 µM
Kd (HLA-B*51:01 [1]; [24]): ≥ 20 µM
Kd (HLA-A*69:01; [24]): ≥ 20 µM
Kd (HLA-B*57:01; [24]): ≥ 20 µM
Kd (HLA-B*15:01; [24]): ≥ 20 µM
Kd (HLA-B*39:01; [24]): ≥ 20 µM
Kd (HLA-A*02:19 [2]; [25]): ≥ 20 µM
Kd (HLA-A*24:03 [19]): ≥ 20 µM
Kd (HLA-A*02:12 [3]; [25]): ≥ 20 µM
Kd (HLA-A*03:01 [4]; [25]): ≥ 20 µM
Kd (HLA-A*02:16; [25]): ≥ 20 µM
Kd (HLA-A*02:03 [5]; [25]): ≥ 20 µM
Kd (HLA-A*68:02 [6]; [25]): ≥ 20 µM
Kd (HLA-A*23:01): ≥ 20 µM
Kd (HLA-A*02:11 [8]; [25]): ≥ 20 µM

Reference: the Immune Epitope Database (IEDB)
